The values below are quoted from earlier work in PMC2164963.

This series addresses EBNA-1 (Epstein-Barr virus) (UniProt P03211).

Take EBNA-1 (from UniProt P03211): the Kd is 1 nM.
